From patent publication US8846861B2, “Peptide clearing agents” (Mologic Ltd, priority 2009, dated 2014) come the findings set out here.

For this assay, the system named is CCL 229 (LoVo) CEA expressing cell line. Briefly: Flow cytometry cell binding, CEA expressing cell line. It is filed as cell-based. Particulars: CCL 229, PE label, 1 hour at 4° C. On the procedure: Measurement by Flow Cytometry of Binding Capability of scFv Anti-CEA-CPG2 Using CEA Expressing Cells.
CRL 1573—control cell line, CCL 229 (LoVo)—CEA expressing cell line
Cultured cells were both used at 2×10^5 cells per tube, cells in tubes were prepared to contain the following
Cells were spun down and 100 μl of antibody solution was added to respective tube. 100 μl buffer was added to tubes 1 and 2 and left in fridge until later.
Tubes were incubated in the dark at 4° C. for 1 hour, add 1 ml PBSAB and spun as above. Include tube 1 in this wash. The supernatant was removed and 100 μl conjugate was added to tube 6 for a further incubation of 1 hr in the dark at 4° C.
Added 150 μl 0.5% formaldehyde to tubes 1, 3, 4 and 5, stored in the fridge until measured (˜2 hours). Washed tube 6 as before and add formaldehyde to this tube. 30 minutes before measuring add 100 μl Propidium Iodine to tube 2, before measuring, added 1 ml of PBS to all samples.
For orientation: Flow cytometry measures light scatter and fluorescence of single cells or particles in a stream.

B1: CPG2 control: carboxypeptidase G2 conjugated to phycoerythrin, control without anti-CEA part (protein)
chain: ALAQKRDNVLFQAATDEQPAVIKTLEKLVNIETGTGDAEGIAAAGNFLEAELKNLGFTVTRSKSAGLVVGDNIVGKIKGRGGKNLLLMSHMDTVYLKGILAKAPFRVEGDKAYGPGIADDKGGNAVILHTLKLLKEYGVRDYGTITVLFNTDEEKGSFGSRDLIQEEAKLADYVLSFEPTSAGDEKLSLGTSGIAYVQVNITGKASHAGAAPELGVNALVEASDLVLRTMNIDDKAKNLRFNWTIAKAGNVSNIIPASATLNADVRYARNEDFDAAMKTLEERAQQKKLPEADVKVIVTRGRPAFNAGEGGKKLVDKAVAYYKEAGGTLGVEERTGGGTDAAYAALSGKPVIESLGLPGFGYHSDKAEYVDISAIPRRLYMAARLIMDLGAGK
As for B1, the “binding to cells by flow cytometry (in words)” value was “does not bind”.
